Where a chain is given by its changes, count along the chain named. Names may count otherwise.
B1: IgG1 full-length heavy chain E345R/K360E/D399M/Y407A/K409V (SEQ ID NO: 58) with light chain SEQ ID NO: 61 (antibody)
heavy: QVQLQESGPGLVRPSQTLSLTCTVSGYSITSDHAWSWVRQPPGRGLEWIGYISYSGITTYNPSLKSRVTMLRDTSKNQFSLRLSSVTAADTAVYYCARSLARTTAMDYWGQGSLVTVSSASTKGPSVFPLAPSSKSTSGGTAALGCLVKDYFPEPVTVSWNSGALTSGVHTFPAVLQSSGLYSLSSVVTVPSSSLGTQTYICNVNHKPSNTKVDKRVEPKSCDKTHTCPPCPAPELLGGPSVFLFPPKPKDTLMISRTPEVTCVVVDVSHEDPEVKFNWYVDGVEVHNAKTKPREEQYNSTYRVVSVLTVLHQDWLNGKEYKCKVSNKALPAPIEKTISKAKGQPRRPQVYTLPPSREEMTENQVSLTCLVKGFYPSDIAVEWESNGQPENNYKTTPPVLMSDGSFFLASVLTVDKSRWQQGNVFSCSVMHEALHNHYTQKSLSLSP
light: not shown
notes: also called Sample No. 230
B2: IgG1 full-length heavy chain E356K/K392D/D399K/K409D (SEQ ID NO: 56) with light chain SEQ ID NO: 61 (antibody)
heavy: B1 heavy with R347E, E358K, E362K, K394D, M401K, A409Y, V411D
light: not shown
notes: also called Sample No. 229
B3: IgG1 full-length heavy chain E345R/Q347R/K360D/T366V/D399M/Y407A/K409V (SEQ ID NO: 55) with light chain SEQ ID NO: 61 (antibody)
heavy: B1 heavy with Q349R, E362D, T368V
light: not shown
B4: IgG1 full-length heavy chain Q347E/S354Y/T366Y/Y407T (SEQ ID NO: 39) with light chain SEQ ID NO: 61 (antibody)
heavy: B1 heavy with R347E, Q349E, S356Y, E362K, T368Y, M401D, A409T, V411K
light: not shown
B5: IgG1 full-length heavy chain E356K/D399K/K409E/K439E (SEQ ID NO: 36) with light chain SEQ ID NO: 61 (antibody)
heavy: B1 heavy with R347E, E358K, E362K, M401K, A409Y, V411E, K441E
light: not shown
B6: IgG1 full-length heavy chain K392D/D399K/K409D (SEQ ID NO: 50) with light chain SEQ ID NO: 61 (antibody)
heavy: B1 heavy with R347E, E362K, K394D, M401K, A409Y, V411D
light: not shown
B7: IgG1 full-length heavy chain Q347R/K360E/D399V/F405T/K409W (SEQ ID NO: 31) with light chain SEQ ID NO: 61 (antibody)
heavy: B1 heavy with R347E, Q349R, M401V, F407T, A409Y, V411W
light: not shown
B8: IgG1 full-length heavy chain K392L/T394W/F405A/Y407V (SEQ ID NO: 41) with light chain SEQ ID NO: 61 (antibody)
heavy: B1 heavy with R347E, E362K, K394L, T396W, M401D, F407A, A409V, V411K
light: not shown
notes: also called Sample No. 225
B9: IgG1 full-length heavy chain E356K/K392D/D399K/K439E (SEQ ID NO: 48) with light chain SEQ ID NO: 61 (antibody)
heavy: B1 heavy with R347E, E358K, E362K, K394D, M401K, A409Y, V411K, K441E
light: not shown
B10: IgG4 full-length heavy chain K392L/T394W/F405A/Y407V (SEQ ID NO: 96) with light chain SEQ ID NO: 61 (antibody)
heavy: QVQLQESGPGLVRPSQTLSLTCTVSGYSITSDHAWSWVRQPPGRGLEWIGYISYSGITTYNPSLKSRVTMLRDTSKNQFSLRLSSVTAADTAVYYCARSLARTTAMDYWGQGSLVTVSSASTKGPSVFPLAPCSRSTSESTAALGCLVKDYFPEPVTVSWNSGALTSGVHTFPAVLQSSGLYSLSSVVTVPSSSLGTKTYTCNVDHKPSNTKVDKRVESKYGPPCPPCPAPEFLGGPSVFLFPPKPKDTLMISRTPEVTCVVVDVSQEDPEVQFNWYVDGVEVHNAKTKPREEQFNSTYRVVSVLTVLHQDWLNGKEYKCKVSNKGLPSSIEKTISKAKGQPREPQVYTLPPSQEEMTKNQVSLTCLVKGFYPSDIAVEWESNGQPENNYLTWPPVLDSDGSFALVSRLTVDKSRWQEGNVFSCSVMHEALHNHYTQKSLSLSL
light: not shown
B11: IgG4 full-length heavy chain Q347R/K360E/D399V/F405T/R409W (SEQ ID NO: 95) with light chain SEQ ID NO: 61 (antibody)
heavy: B10 heavy with Q346R, K359E, L391K, W393T, D398V, A404T, V406Y, R408W
light: not shown

Target: T1, IgG2 Fc fragment without modification (SEQ ID NO: 103) (Homo sapiens (Human), UniProt P01859 99-324 = IgG part)
T1 construct: Fc fragment co-expressed with a full-length heavy chain and the light chain; the associating unit is one Fc chain; also called WT-IgG2 Fc fragment
Assay: co-expression of full-length heavy chain, light chain and Fc fragment in Expi293F, affinity purification, SEC peak area ratio;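 further: purified antibodies analysed by size exclusion chromatography with UV detection at 215 nm, each species given as share of total chromatogram peak area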

Row | Heteromultimer (%) | Binder
1 | 0 | B1
2 | 0 | B2
3 | 0 | B3
4 | 0 | B4
5 | 0 | B5
6 | 0 | B6
7 | 0 | B7
8 | 0 | B8
9 | 0 | B9
10 | 0 | B10
11 | 0 | B11

Target: the molecule itself
Assay: as above

Row | Binder | Homo full-length heavy chain (%)
12 | B1 | 84.3
13 | B2 | 81.4
14 | B3 | 83.5
15 | B4 | 82.9
16 | B5 | 84.3
17 | B6 | 81.4
18 | B7 | 82.7
19 | B8 | 83.8
20 | B9 | 85.1
21 | B10 | 81.5
22 | B11 | 83.5
